Results taken from the supplement of paper PMC10567573.

B1: CDC25A (parent)
chain: KPIVPTDGKRVIVVFHCEFSSERG

Variants of: B1
Test: protein stability index of a GFP-peptide fusion (GPS, HEK-293T) (PSI 1-6); higher = more stable
Settings: c terminus: a fixed tail appended
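Further: lentivirally expressed fusions sorted by FACS into six bins by GFP to DsRed ratio, PSI derived from sequencing read proportions per bin multiplied by bin number.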

Protein stability index, by site and new letter:
P5: Y 2.66 | V 2.29 | E 2.33 | T 1.55 | H 1.5 | M 2.45 | C 4.79 | I 2.42 | R 1.84 | A 2.63 | F 2.19 | L 2.4 | D 1.33 | G 1.69 | N 4.39 | W 3.01 | Q 2.27 | S 2.29 | K 2.13
E18: W 2.46 | I 2.28 | Q 3.42 | H 3.13 | Y 2.26 | C 2.17 | F 3.14 | L 1.76 | V 3.1 | A 2.51 | R 2.48 | M 2.38 | N 2.34 | S 3.26 | K 4 | D 1.79 | G 2.55 | P 2.31
V11: E 3.05 | M 2.06 | A 1.93 | F 2.11 | R 1.68 | W 3.24 | S 2.35 | G 2.21 | Q 2.25 | I 3.01 | Y 2.59 | T 1.76 | D 2.65 | L 2.82 | P 2.31 | H 1.58 | C 1.57 | N 2.14 | K 2.51
I12: T 2 | G 3.13 | V 1.63 | S 1.82 | E 2.84 | P 3.39 | W 2.49 | L 3.39 | R 1.94 | C 2.1 | A 2.11 | H 1.83 | K 3.13 | D 3.47 | M 2.24 | Q 2 | F 3.2 | N 2.99
E22: D 2.61 | C 2.52 | F 3.5 | G 1.99 | H 2.7 | A 2.39
T6: W 3.34 | Q 3.58 | V 1.61 | G 1.97 | N 2.28 | C 2.64 | S 1.86 | I 2.31 | R 2.27 | E 1.82 | K 1.83 | P 1.95 | A 1.44 | D 1.8 | L 1.92 | H 2.71 | F 2.46 | M 2.11 | Y 2.19
H16: N 1.87 | G 1.76 | Y 3.43 | R 3.3 | D 2.06 | V 2.32 | K 1.49 | F 2.41 | M 4.57 | C 2.31 | P 2.46 | E 1.5 | A 1.79 | S 3.2 | T 3.6 | Q 1.83 | I 2.85 | L 3.13
F19: A 1.71 | V 2.19 | E 2.47 | W 1.86 | T 2.1 | H 1.86 | P 1.8 | N 2 | L 2.32 | I 1.65 | Q 2.3 | C 1.98 | G 2.15 | D 2.41 | S 2.27 | M 2.05 | R 2.22 | Y 1.89 | K 2.18
S20: D 1.68 | Y 2.42 | N 1.95 | W 2.1 | A 1.96 | P 1.92 | E 1.12 | G 2.51 | T 2.79 | M 2.43 | V 1.7 | R 3.53 | H 2.8 | Q 1.71 | L 2.5 | I 3.13 | C 2.23 | F 3.29 | K 2.76
C17: K 2.33 | M 1.99 | R 1.95 | I 2.68 | S 1.85 | L 2.12 | P 2.64 | Q 2.32 | A 2.24 | E 2.57 | D 2.77 | F 1.93
